According to the supplement of paper PMC10065799, “High-throughput profiling of sequence recognition by tyrosine kinases and SH2 domains using bacterial peptide display” (eLife, 2023):

The sequences below were run against FGFR3 (UniProt P22607) (assay: phosphorylation enrichment, bacterial display (enrichment ratio); higher = better substrate or ligand; peptides without Tyr show the background).
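Note: 11-residue human phosphosite peptides and single-mutation variants displayed on the E. coli surface, counted by deep sequencing, each peptide's frequency after selection divided by its frequency in the unselected input library; frequency after pTyr selection over input frequency; kinase dosed for 20-30% of maximal phosphorylation in three min.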

Chain of FGFR3 (P22607 whole entry, looked up): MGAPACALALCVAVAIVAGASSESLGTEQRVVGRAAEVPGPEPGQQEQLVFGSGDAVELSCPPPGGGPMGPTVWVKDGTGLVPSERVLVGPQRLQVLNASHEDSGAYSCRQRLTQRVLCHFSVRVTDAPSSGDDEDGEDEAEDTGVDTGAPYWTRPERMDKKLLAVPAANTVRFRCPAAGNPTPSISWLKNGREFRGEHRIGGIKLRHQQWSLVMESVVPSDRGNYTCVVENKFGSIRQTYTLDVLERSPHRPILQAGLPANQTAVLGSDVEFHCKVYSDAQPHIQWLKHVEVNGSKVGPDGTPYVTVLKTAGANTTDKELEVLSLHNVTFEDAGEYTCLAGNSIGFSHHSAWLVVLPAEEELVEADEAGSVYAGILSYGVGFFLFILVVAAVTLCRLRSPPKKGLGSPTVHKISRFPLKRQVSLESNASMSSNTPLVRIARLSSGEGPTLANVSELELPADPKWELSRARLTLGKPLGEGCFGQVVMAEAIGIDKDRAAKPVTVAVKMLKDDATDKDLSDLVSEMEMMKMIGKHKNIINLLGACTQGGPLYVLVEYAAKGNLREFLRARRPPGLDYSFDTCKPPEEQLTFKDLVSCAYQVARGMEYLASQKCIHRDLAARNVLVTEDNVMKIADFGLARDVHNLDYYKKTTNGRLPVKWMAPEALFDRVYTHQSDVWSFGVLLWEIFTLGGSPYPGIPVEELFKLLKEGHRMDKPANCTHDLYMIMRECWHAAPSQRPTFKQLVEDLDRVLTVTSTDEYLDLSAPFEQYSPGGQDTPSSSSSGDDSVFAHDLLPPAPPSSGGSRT

Row | Sequence | phosphorylation enrichment
1 | LLNPRYNLPLD [TOM1L1_Y109] | 0.767
2 | SDGHEYIFVDR [PDGFRB_Y579_P584R_YF] | 0.833
3 | ECKHLYSRKEG [PTPN11_Y263_L261H] | 0.397
4 | WDLPEYSYKDP [ITGA3_Y237_S235P] | 0.926
5 | AHPIIYTIIEA [PYKtide_no-pT_2014] | 1.44
6 | GKMPQYLESMQ [CYB5R3_Y130_S128P] | 0.554
7 | DFEGLYQEGGG [TMEM159_Y159_E154D] | 0.817
8 | FKDYFYCWNTS [AICDA_Y146_F151S] | 9.31
9 | WNDLDYVDSRR [GAA_Y407_M408V] | 0.67
10 | REQREYLEQLN [CCDC88B_Y1277_D1279E] | 0.755
11 | MKKMHYVDPDR [ST3GAL5_Y99_H104R] | 0.521
12 | TESALYGCTVL [KIAA1804_Y724] | 1.15
13 | FTTIHYNFMCN [TP53_Y234_C229Y_YF] | 0.887
14 | PRSRSYFSTSI [REPS2_Y462_S463F] | 0.574
15 | HLELNYKEDEY [MME_Y502_Y497H] | 0.611
16 | FQNGMYGLHQD [SGSH_Y89_H84Y_YF] | 0.555
17 | HVSISYDIPPT [GAB1_Y307] | 1.01

Row | Sequence | phosphorylation enrichment
18 | IQRSLYDCPAS [PDGFRA_Y762_R764C] | 0.706
19 | IPPRRYFCSGV [STAMBP_Y36_R38C] | 0.447
20 | FEPDAYDDLDQ [ELP5_Y302_YF] | 0.704
21 | RQNQEYEILLD [KRT39_Y379] | 0.678
22 | AKYLGYPPPEI [KDR_Y357] | 0.556
23 | RLLVVYPWTQG [HBG2_Y36_R41G] | 0.58
24 | EEGRVYVFHLS [ITGAE_Y549_R552H_YF] | 0.756
25 | DKATEYIQYMR [MAX_Y70] | 0.572
26 | RSPLRYISILT [OR51B6_Y130_T131I] | 0.763
27 | LQTFRYHGLSM [PDHA1_Y289_H292L_YF] | 1.38
28 | QYQLKYSETPF [SIX6OS1_Y129] | 0.769
29 | KNSFKYYMSDD [ATRX_Y203_C200S] | 0.604
30 | TSQSQYFSFRE [CCDC170_Y323] | 1.49
31 | TEAEPYYCSLR [NPHS1_Y1138_R1140C] | 1.47
32 | EVKAQNEDIAQ [KRT1_Y358_Y358N] | 0.584
33 | RHPFFFAPELL [ALB_Y174_Y174F_YF] | 1.64

These sequences were tested on AncSZ in the same assay as above.

Row | Sequence | phosphorylation enrichment
34 | LLNPRYNLPLD [TOM1L1_Y109] | 1.14
35 | SDGHEYIFVDR [PDGFRB_Y579_P584R_YF] | 0.962
36 | ECKHLYSRKEG [PTPN11_Y263_L261H] | 0.451
37 | WDLPEYSYKDP [ITGA3_Y237_S235P] | 2.12
38 | AHPIIYTIIEA [PYKtide_no-pT_2014] | 0.892
39 | GKMPQYLESMQ [CYB5R3_Y130_S128P] | 0.741
40 | DFEGLYQEGGG [TMEM159_Y159_E154D] | 1.23
41 | FKDYFYCWNTS [AICDA_Y146_F151S] | 2.62
42 | WNDLDYVDSRR [GAA_Y407_M408V] | 1.44
43 | REQREYLEQLN [CCDC88B_Y1277_D1279E] | 1.18
44 | MKKMHYVDPDR [ST3GAL5_Y99_H104R] | 0.407
45 | TESALYGCTVL [KIAA1804_Y724] | 1.13
46 | FTTIHYNFMCN [TP53_Y234_C229Y_YF] | 1.03
47 | PRSRSYFSTSI [REPS2_Y462_S463F] | 0.623
48 | HLELNYKEDEY [MME_Y502_Y497H] | 1.32
49 | FQNGMYGLHQD [SGSH_Y89_H84Y_YF] | 0.665
50 | HVSISYDIPPT [GAB1_Y307] | 1.33

Row | Sequence | phosphorylation enrichment
51 | IQRSLYDCPAS [PDGFRA_Y762_R764C] | 1.38
52 | IPPRRYFCSGV [STAMBP_Y36_R38C] | 0.642
53 | FEPDAYDDLDQ [ELP5_Y302_YF] | 1.29
54 | RQNQEYEILLD [KRT39_Y379] | 1.38
55 | AKYLGYPPPEI [KDR_Y357] | 0.543
56 | RLLVVYPWTQG [HBG2_Y36_R41G] | 0.894
57 | EEGRVYVFHLS [ITGAE_Y549_R552H_YF] | 1.18
58 | DKATEYIQYMR [MAX_Y70] | 0.852
59 | RSPLRYISILT [OR51B6_Y130_T131I] | 0.724
60 | LQTFRYHGLSM [PDHA1_Y289_H292L_YF] | 1.26
61 | QYQLKYSETPF [SIX6OS1_Y129] | 1
62 | KNSFKYYMSDD [ATRX_Y203_C200S] | 0.92
63 | TSQSQYFSFRE [CCDC170_Y323] | 0.745
64 | TEAEPYYCSLR [NPHS1_Y1138_R1140C] | 1.81
65 | EVKAQNEDIAQ [KRT1_Y358_Y358N] | 0.86
66 | RHPFFFAPELL [ALB_Y174_Y174F_YF] | 1.64
